The results in this text go back to US20250135043A1, “DUAL-TARGETING COMPOUND FOR FIBROBLAST ACTIVATION PROTEIN (FAP) AND INTEGRIN avB3, PREPARATION METHOD THEREFOR AND USE THEREOF” (YANTAI LANNACHENG BIOTECHNOLOGY CO., LTD., priority 2022, published 2025).

For series [1], the target named is T1, integrin αvβ3 (Homo sapiens, UniProt P05106+P06756).
T1 construct: endogenous in cells; host or cells: U87MG tumor cells
Description: Cell binding experiment in U87MG tumor cells.
Description: A cell binding experiment was carried out in HT1080-FAP and U87MG tumor cells, and test results are shown in Part B and Part C of FIG. 52, respectively.

Series [2] has as its system HT1080-FAP tumor-bearing mice. The conditions noted are these: mouse, in vivo. As to the method:
Then, under anaesthesia with isoflurane, the ^68Ga-FAPI-RGD (V-25) group was subjected to MicroPET imaging after administration for 0-240 min, respectively, and the other groups were subjected to MicroPET imaging after administration for 0-120 min, respectively. In FIG. 53, Part A, Part C and Part E show maximum-density MicroPET projection images of the HT1080-FAP tumor-bearing mice (n=3) at different time points after the intravenous injection of the three groups of mice, respectively, and Part B, Part D and Part F show uptake in various organs or tissues (such as blood, liver, kidney, tumors and muscles) of the three groups of mice at different time points after the injection, respectively, where three uptake amounts in each group correspond to, from left to right, 0.5 h, 1 h and 2 h after the injection, respectively. […] A specific binding property of the ^68Ga-FAPI-RGD (V-25) to integrin αvβ3 and FAP in vivo is proven by a blocking experiment. The ^68Ga-FAPI-RGD (V-25) and C(RGDfK) or FAPI-02 were co-injected into HT1080-FAP tumor-bearing mice, and MicroPET imaging results and organ uptake results are shown in FIG. 54. […]

In series [3] the test system is tumors of patients (pancreatic cancer, non small cell lung cancer, small cell lung cancer, nasopharyngeal carcinoma). The conditions noted are these: human, in vivo, iv. The procedure: In a clinical trial in the real world, a patient with pancreatic cancer (one), a patient with non small cell lung cancer (one), a patient with small cell lung cancer (one) and a patient with nasopharyngeal carcinoma (one) were used as subjects. An intravenous injection dose (1.8-2.2 MBq [0.05-0.06 mCi]/kg) of the ^68Ga-FAPI-RGD (V-25) was calculated based on a body weight of each subject. After intravenous injection was performed for 3 h, data was obtained by a hybrid PET/CT scanner (Discovery MI, GE Health care, Milwaukee, WI, USA). A maximum standard uptake value (SUVmax) was automatically calculated by using a region of interest (ROI) drawn on a transaxial image. The SUVmax value of the ^68Ga-FAPI-RGD (V-25) targeting two targets is higher than that of ^68Ga-FAPI-46 targeting the single target, FAP, in different types of tumors, and the SUVmax value is increased by about 30-50%, proving that the design of targeting two targets can improve the number and utilization efficiency of effective receptors in tumors, thereby improving the uptake in tumors.

T1 sequence (P06756 31-889 limits assumed): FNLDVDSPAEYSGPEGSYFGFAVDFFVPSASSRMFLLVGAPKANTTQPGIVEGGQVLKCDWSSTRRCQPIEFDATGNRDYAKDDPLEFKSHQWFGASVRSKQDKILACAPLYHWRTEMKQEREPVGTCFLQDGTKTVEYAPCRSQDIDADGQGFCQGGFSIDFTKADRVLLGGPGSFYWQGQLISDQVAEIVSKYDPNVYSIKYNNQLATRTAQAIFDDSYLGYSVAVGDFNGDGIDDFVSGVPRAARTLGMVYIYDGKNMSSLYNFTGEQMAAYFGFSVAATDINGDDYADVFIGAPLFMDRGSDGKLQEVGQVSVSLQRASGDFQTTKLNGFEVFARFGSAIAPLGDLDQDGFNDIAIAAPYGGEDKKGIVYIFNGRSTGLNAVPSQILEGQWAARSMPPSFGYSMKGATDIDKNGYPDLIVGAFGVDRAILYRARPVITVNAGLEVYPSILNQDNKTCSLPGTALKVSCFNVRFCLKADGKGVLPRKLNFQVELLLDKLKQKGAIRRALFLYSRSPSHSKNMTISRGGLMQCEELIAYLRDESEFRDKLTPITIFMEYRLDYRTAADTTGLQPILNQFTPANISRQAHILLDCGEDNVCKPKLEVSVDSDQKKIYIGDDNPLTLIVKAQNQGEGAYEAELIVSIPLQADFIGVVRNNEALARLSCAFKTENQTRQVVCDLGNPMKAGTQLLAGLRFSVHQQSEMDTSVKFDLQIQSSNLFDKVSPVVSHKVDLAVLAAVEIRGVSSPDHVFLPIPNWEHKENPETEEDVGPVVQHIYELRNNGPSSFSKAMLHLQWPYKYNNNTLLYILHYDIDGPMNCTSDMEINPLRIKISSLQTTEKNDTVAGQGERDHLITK
T1 sequence (P06756 891-1048 partner limits assumed): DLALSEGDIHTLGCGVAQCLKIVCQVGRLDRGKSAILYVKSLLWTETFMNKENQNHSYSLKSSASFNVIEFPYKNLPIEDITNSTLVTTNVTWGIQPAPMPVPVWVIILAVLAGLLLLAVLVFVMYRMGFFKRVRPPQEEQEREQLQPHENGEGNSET
T1 sequence (P05106 27-788): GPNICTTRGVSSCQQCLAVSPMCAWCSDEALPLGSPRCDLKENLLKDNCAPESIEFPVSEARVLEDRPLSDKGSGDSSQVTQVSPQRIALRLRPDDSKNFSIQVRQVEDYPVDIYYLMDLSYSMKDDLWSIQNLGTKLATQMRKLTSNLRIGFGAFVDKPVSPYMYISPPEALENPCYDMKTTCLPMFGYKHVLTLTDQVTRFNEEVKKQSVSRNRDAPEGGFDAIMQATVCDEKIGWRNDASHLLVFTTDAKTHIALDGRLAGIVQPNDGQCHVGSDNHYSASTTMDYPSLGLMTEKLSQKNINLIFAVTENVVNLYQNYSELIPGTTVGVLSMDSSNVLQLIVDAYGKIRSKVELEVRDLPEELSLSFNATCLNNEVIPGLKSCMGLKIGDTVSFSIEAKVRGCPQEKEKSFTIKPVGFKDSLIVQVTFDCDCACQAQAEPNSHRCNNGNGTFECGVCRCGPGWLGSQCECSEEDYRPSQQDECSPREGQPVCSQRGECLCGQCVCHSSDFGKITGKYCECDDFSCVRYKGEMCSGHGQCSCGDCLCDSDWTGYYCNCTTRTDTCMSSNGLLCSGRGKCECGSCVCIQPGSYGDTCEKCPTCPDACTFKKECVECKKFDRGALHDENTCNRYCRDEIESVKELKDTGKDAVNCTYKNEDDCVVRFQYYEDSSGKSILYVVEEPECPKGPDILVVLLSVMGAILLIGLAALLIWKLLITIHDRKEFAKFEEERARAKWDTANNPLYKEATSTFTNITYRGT

Compound `N#C[C@@H]1CCCN1C(=O)CNC(=O)c1ccnc2ccc(OCCCN3CCN(C(=O)CCOCCOCCNC(=O)[C@H](CCC(=O)NCCOCCOCCC(=O)NCCCC[C@@H]4NC(=O)[C@@H](Cc5ccccc5)NC(=O)[C@H](CC(=O)O)NC(=O)CNC(=O)[C@H](CCCNC(=N)N)NC4=O)NC(=O)CN4CCN(CC(=O)O)CCN(CC(=O)O)CC4)CC3)cc12` [^68Ga-FAPI-RGD (V-25), metal not drawn] showed an IC50 in series [1] of 18.9 nM. Also, the “tumor uptake compared with monomers” value in series [2] is on record as “higher”. Moreover, in series [3], the “SUVmax value compared with 68Ga-FAPI-46” value is reported as “higher” and the “increase of SUVmax value over 68Ga-FAPI-46” value was 30-50%.
